Columns and labels:
AncSZ = assay: phosphorylation enrichment, bacterial display (enrichment ratio); higher = better substrate or ligand; peptides without Tyr show the background
EPHB1 = EPHB1 (UniProt P54762); assay: as above
EPHB2 = EPHB2 (UniProt P29323); assay: as above
FGFR1 = FGFR1 (UniProt P11362); assay: as above
FGFR3 = FGFR3 (UniProt P22607); assay: as above
Fer (mouse) = assay: as above
Fes = Fes (UniProt P07332); assay: as above
Fyn = Fyn (UniProt P06241); assay: as above
Hck = Hck (UniProt P08631); assay: as above
Jak2 = Jak2 (UniProt O60674); assay: as above
MERTK = MERTK (UniProt Q12866); assay: as above
c-Abl (mouse) = assay: as above
c-Src = assay: as above
Grb2 SH2 = Grb2 SH2 (UniProt P62993); assay: SH2 binding enrichment of the phosphorylated peptide, bacterial display (enrichment ratio); higher = better substrate or ligand; peptides without Tyr show the background
SHP2-C SH2 = assay: as above
c-Src SH2 = assay: as above
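Wherever SH2 binding enrichment of the phosphorylated peptide, bacterial display is given: peptide library displayed on the E. coli surface as eCPX fusions, selected cells deep-sequenced, score is each peptide's frequency after selection divided by its frequency in the input.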
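Wherever phosphorylation enrichment, bacterial display is given: 11-residue human phosphosite peptides and single-mutation variants displayed on the E. coli surface, counted by deep sequencing, each peptide's frequency after selection divided by its frequency in the unselected input library; frequency after pTyr selection over input frequency; kinase dosed for 20-30% of maximal phosphorylation in three min.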

Hck, sequence (P08631 whole entry, looked up): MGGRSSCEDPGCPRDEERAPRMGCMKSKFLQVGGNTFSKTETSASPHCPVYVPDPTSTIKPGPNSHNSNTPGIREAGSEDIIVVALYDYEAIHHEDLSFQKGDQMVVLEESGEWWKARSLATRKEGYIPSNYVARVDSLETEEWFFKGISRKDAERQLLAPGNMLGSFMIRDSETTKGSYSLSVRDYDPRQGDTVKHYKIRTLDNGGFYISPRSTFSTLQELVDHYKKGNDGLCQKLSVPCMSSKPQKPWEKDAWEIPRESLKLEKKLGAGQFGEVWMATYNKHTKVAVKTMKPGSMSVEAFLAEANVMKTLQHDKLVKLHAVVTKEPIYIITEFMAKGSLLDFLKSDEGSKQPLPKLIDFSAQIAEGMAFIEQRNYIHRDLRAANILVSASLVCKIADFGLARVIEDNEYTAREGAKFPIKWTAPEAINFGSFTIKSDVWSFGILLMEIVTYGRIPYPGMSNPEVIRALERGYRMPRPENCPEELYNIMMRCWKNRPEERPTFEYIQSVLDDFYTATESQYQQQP
MERTK, sequence (Q12866 whole entry, looked up): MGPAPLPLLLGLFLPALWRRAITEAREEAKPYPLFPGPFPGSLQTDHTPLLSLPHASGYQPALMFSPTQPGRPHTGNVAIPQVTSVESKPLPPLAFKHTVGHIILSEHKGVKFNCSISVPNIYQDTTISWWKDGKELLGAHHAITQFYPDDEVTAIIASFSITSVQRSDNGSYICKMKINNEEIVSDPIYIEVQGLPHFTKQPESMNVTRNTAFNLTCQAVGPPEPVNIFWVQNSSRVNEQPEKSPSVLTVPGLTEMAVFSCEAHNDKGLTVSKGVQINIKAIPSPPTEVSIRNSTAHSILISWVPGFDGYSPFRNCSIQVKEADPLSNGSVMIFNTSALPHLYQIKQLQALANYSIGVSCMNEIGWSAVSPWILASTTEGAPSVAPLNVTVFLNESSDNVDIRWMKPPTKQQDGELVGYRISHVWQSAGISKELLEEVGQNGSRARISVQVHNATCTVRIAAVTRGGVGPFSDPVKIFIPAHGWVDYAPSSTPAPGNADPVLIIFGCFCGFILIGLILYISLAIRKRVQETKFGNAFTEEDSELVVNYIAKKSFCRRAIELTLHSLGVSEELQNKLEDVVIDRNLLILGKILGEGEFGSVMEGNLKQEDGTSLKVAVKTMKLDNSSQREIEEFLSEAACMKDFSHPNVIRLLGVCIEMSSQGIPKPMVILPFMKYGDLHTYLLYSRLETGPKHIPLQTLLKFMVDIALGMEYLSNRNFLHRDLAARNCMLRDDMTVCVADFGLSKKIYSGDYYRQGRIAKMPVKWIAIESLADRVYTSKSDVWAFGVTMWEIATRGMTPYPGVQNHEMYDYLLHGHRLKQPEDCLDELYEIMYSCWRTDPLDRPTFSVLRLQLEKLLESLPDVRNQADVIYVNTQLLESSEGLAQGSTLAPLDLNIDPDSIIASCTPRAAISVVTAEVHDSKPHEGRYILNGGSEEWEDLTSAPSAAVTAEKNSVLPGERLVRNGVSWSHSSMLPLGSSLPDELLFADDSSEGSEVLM
FGFR3, sequence (P22607 whole entry, looked up): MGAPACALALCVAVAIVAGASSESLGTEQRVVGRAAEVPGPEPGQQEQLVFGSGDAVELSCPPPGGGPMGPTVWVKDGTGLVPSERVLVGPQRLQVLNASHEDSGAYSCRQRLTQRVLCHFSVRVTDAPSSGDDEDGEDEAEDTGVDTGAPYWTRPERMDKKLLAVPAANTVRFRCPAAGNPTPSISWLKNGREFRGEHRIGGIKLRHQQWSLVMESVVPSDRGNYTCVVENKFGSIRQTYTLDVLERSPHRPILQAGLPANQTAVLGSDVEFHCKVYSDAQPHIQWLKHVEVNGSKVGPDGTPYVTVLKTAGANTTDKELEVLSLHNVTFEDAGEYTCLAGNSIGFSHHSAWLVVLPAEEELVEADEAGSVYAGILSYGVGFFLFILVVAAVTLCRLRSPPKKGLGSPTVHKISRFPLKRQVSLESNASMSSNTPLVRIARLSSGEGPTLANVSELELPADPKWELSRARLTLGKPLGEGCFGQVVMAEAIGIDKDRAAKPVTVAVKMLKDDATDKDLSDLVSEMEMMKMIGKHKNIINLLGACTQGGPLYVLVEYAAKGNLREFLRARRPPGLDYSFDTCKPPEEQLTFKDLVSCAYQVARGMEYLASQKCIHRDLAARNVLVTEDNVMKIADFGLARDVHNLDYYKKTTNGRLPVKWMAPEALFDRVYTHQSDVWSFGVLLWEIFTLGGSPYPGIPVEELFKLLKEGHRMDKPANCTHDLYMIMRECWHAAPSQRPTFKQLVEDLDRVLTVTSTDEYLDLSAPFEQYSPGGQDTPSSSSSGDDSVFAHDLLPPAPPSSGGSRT
Fes, sequence (P07332 whole entry, looked up): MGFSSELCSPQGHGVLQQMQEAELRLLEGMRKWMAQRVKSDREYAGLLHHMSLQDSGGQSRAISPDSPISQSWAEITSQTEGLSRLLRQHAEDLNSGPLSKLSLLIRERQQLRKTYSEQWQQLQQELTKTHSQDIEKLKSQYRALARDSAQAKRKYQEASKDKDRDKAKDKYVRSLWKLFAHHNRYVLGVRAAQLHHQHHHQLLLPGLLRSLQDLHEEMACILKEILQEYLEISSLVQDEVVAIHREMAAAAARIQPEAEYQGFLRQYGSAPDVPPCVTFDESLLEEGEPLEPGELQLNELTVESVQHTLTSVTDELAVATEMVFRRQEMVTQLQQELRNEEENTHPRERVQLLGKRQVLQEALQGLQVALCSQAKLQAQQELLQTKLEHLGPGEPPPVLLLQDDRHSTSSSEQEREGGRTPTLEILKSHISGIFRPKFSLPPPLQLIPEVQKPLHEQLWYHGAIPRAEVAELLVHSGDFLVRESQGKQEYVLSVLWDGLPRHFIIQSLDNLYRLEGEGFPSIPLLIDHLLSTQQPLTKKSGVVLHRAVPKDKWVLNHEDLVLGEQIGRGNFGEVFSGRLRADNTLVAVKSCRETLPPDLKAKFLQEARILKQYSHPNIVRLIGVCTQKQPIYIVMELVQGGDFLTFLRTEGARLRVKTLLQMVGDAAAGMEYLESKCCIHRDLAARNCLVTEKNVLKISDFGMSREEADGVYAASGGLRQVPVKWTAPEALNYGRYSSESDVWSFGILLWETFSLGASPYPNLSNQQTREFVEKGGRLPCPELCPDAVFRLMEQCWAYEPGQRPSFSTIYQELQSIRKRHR
FGFR1, sequence (P11362 whole entry, looked up): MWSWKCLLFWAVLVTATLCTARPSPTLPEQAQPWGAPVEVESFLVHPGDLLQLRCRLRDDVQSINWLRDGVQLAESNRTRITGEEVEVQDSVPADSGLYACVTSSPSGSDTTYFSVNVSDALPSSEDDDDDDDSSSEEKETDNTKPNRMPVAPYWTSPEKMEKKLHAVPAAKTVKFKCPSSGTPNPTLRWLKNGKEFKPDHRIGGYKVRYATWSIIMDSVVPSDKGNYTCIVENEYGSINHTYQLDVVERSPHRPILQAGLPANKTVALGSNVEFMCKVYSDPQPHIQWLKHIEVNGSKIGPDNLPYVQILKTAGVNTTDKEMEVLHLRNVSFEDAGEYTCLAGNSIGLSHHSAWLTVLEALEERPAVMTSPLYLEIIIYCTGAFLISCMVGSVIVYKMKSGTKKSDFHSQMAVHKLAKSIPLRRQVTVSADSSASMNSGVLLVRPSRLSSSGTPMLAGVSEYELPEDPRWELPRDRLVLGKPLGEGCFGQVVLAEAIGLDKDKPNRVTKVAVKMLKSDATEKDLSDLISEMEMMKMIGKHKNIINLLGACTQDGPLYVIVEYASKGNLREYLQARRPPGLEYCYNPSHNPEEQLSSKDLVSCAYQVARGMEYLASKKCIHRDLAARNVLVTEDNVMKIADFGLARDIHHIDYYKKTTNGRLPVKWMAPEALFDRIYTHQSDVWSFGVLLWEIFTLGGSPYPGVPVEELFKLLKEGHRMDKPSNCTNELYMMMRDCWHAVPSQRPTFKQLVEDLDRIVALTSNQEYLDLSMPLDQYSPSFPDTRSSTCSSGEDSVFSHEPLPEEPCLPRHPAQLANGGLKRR
Fyn, sequence (P06241 whole entry, looked up): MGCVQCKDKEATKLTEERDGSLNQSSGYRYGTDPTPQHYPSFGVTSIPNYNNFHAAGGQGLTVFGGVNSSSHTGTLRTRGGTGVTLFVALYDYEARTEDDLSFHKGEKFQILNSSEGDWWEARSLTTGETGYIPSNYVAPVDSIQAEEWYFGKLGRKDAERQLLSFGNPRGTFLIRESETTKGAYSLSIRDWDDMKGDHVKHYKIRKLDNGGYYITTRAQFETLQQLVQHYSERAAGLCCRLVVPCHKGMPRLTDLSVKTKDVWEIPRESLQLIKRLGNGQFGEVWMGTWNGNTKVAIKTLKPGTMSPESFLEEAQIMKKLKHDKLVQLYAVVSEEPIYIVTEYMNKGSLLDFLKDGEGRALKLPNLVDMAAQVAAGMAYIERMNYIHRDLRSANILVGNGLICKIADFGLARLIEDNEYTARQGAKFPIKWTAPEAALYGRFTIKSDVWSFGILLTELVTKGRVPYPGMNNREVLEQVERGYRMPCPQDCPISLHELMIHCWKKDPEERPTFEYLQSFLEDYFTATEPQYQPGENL
Grb2 SH2, sequence (P62993 whole entry, looked up): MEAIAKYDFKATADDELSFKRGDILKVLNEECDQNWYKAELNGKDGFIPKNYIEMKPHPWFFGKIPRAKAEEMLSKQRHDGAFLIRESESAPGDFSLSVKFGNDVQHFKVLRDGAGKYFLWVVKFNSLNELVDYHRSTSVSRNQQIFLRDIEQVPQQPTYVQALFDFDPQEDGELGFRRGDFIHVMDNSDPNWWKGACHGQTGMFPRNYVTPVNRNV

Work on FDGKDYIALKE [HLA-A_Y147_N151K_YF] yielded a phosphorylation enrichment (AncSZ) of 0.952, a phosphorylation enrichment (EPHB1) of 0.407 and a phosphorylation enrichment (EPHB2) of 0.43. For the same sequence, the phosphorylation enrichment (FGFR1) was 0.398, the phosphorylation enrichment (FGFR3) was 0.44 and the phosphorylation enrichment (Fer (mouse)) was 0.379. The phosphorylation enrichment (Fes) was 0.672, the phosphorylation enrichment (Fyn) was 0.376 and the phosphorylation enrichment (Hck) was 0.363. It also gave a phosphorylation enrichment (Jak2) of 0.659, a phosphorylation enrichment (MERTK) of 0.406 and a phosphorylation enrichment (c-Abl (mouse)) of 0.536. The phosphorylation enrichment (c-Src) was 0.489, the SH2 binding enrichment (Grb2 SH2) was 0.919 and the SH2 binding enrichment (SHP2-C SH2) was 0.677. For the same sequence, the SH2 binding enrichment (c-Src SH2) was 0.499.
For LGEGSYGKVKE [STK11_Y60], the phosphorylation enrichment (AncSZ) was 1.75, the phosphorylation enrichment (EPHB1) was 1.29 and the phosphorylation enrichment (EPHB2) was 0.868. The phosphorylation enrichment (FGFR1) was 1.21, the phosphorylation enrichment (FGFR3) was 0.783 and the phosphorylation enrichment (Fer (mouse)) was 0.574. The phosphorylation enrichment (Fes) was 1.5, the phosphorylation enrichment (Fyn) was 0.939 and the phosphorylation enrichment (Hck) was 0.862. It also gave a phosphorylation enrichment (Jak2) of 1.58, a phosphorylation enrichment (MERTK) of 0.887 and a phosphorylation enrichment (c-Abl (mouse)) of 1.12. The phosphorylation enrichment (c-Src) was 0.863, the SH2 binding enrichment (Grb2 SH2) was 0.669 and the SH2 binding enrichment (SHP2-C SH2) was 0.52. It also gave an SH2 binding enrichment (c-Src SH2) of 0.571.
Work on EKQVAYCPSGR [ROS1_Y2323_K2328R] yielded a phosphorylation enrichment (AncSZ) of 2.05, a phosphorylation enrichment (EPHB1) of 0.511 and a phosphorylation enrichment (EPHB2) of 0.615. For the same sequence, the phosphorylation enrichment (FGFR1) was 0.531, the phosphorylation enrichment (FGFR3) was 0.705 and the phosphorylation enrichment (Fer (mouse)) was 0.675. The phosphorylation enrichment (Fes) was 1.18, the phosphorylation enrichment (Fyn) was 0.569 and the phosphorylation enrichment (Hck) was 0.501. The phosphorylation enrichment (Jak2) was 1.27, the phosphorylation enrichment (MERTK) was 0.667 and the phosphorylation enrichment (c-Abl (mouse)) was 1.06. It also gave a phosphorylation enrichment (c-Src) of 0.782, an SH2 binding enrichment (Grb2 SH2) of 1.01 and an SH2 binding enrichment (SHP2-C SH2) of 0.59. It also gave an SH2 binding enrichment (c-Src SH2) of 0.631.
AAVDTVCRHNY [HLA-DRB1_Y107_Y107V] gave a phosphorylation enrichment (AncSZ) of 0.645, a phosphorylation enrichment (EPHB1) of 0.463 and a phosphorylation enrichment (EPHB2) of 0.429. The phosphorylation enrichment (FGFR1) was 0.612, the phosphorylation enrichment (FGFR3) was 0.673 and the phosphorylation enrichment (Fer (mouse)) was 0.417. The phosphorylation enrichment (Fes) was 0.842, the phosphorylation enrichment (Fyn) was 0.494 and the phosphorylation enrichment (Hck) was 0.64. For the same sequence, the phosphorylation enrichment (Jak2) was 0.739, the phosphorylation enrichment (MERTK) was 0.511 and the phosphorylation enrichment (c-Abl (mouse)) was 0.795. For the same sequence, the phosphorylation enrichment (c-Src) was 0.473, the SH2 binding enrichment (Grb2 SH2) was 0.788 and the SH2 binding enrichment (SHP2-C SH2) was 0.636. For the same sequence, the SH2 binding enrichment (c-Src SH2) was 0.534.
For VILENYGADID [DNAH5_Y596_L591V], the phosphorylation enrichment (AncSZ) was 1.06, the phosphorylation enrichment (EPHB1) was 0.555 and the phosphorylation enrichment (EPHB2) was 0.589. The phosphorylation enrichment (FGFR1) was 0.557, the phosphorylation enrichment (FGFR3) was 0.719 and the phosphorylation enrichment (Fer (mouse)) was 0.492. The phosphorylation enrichment (Fes) was 1.11, the phosphorylation enrichment (Fyn) was 0.653 and the phosphorylation enrichment (Hck) was 0.515. It also gave a phosphorylation enrichment (Jak2) of 1.13, a phosphorylation enrichment (MERTK) of 0.641 and a phosphorylation enrichment (c-Abl (mouse)) of 0.674. For the same sequence, the phosphorylation enrichment (c-Src) was 0.5, the SH2 binding enrichment (Grb2 SH2) was 0.739 and the SH2 binding enrichment (SHP2-C SH2) was 0.54. For the same sequence, the SH2 binding enrichment (c-Src SH2) was 0.454.
Sequence GHEFIYVDRMQ [PDGFRB_Y581_P584R_YF] has a phosphorylation enrichment (AncSZ) of 0.777, a phosphorylation enrichment (EPHB1) of 0.47 and a phosphorylation enrichment (EPHB2) of 0.685. For the same sequence, the phosphorylation enrichment (FGFR1) was 0.555, the phosphorylation enrichment (FGFR3) was 0.624 and the phosphorylation enrichment (Fer (mouse)) was 0.382. It also gave a phosphorylation enrichment (Fes) of 0.836, a phosphorylation enrichment (Fyn) of 1.42 and a phosphorylation enrichment (Hck) of 1.11. For the same sequence, the phosphorylation enrichment (Jak2) was 0.541, the phosphorylation enrichment (MERTK) was 0.479 and the phosphorylation enrichment (c-Abl (mouse)) was 0.651. It also gave a phosphorylation enrichment (c-Src) of 2.02, an SH2 binding enrichment (Grb2 SH2) of 0.92 and an SH2 binding enrichment (SHP2-C SH2) of 0.741. The SH2 binding enrichment (c-Src SH2) was 0.399.
Sequence RHPYFYAPELL [ALB_Y174] has a phosphorylation enrichment (AncSZ) of 1.38, a phosphorylation enrichment (EPHB1) of 0.564 and a phosphorylation enrichment (EPHB2) of 0.762. It also gave a phosphorylation enrichment (FGFR1) of 12.7, a phosphorylation enrichment (FGFR3) of 10.8 and a phosphorylation enrichment (Fer (mouse)) of 0.476. It also gave a phosphorylation enrichment (Fes) of 1.19, a phosphorylation enrichment (Fyn) of 0.517 and a phosphorylation enrichment (Hck) of 0.474. The phosphorylation enrichment (Jak2) was 1.13, the phosphorylation enrichment (MERTK) was 0.622 and the phosphorylation enrichment (c-Abl (mouse)) was 0.694. It also gave a phosphorylation enrichment (c-Src) of 0.776, an SH2 binding enrichment (Grb2 SH2) of 1.34 and an SH2 binding enrichment (SHP2-C SH2) of 0.891. The SH2 binding enrichment (c-Src SH2) was 0.796.
Sequence TVEDHYFEGGI [TKT_Y563_YF] has a phosphorylation enrichment (AncSZ) of 1.1, a phosphorylation enrichment (EPHB1) of 0.726 and a phosphorylation enrichment (EPHB2) of 0.625. For the same sequence, the phosphorylation enrichment (FGFR1) was 0.762, the phosphorylation enrichment (FGFR3) was 1.03 and the phosphorylation enrichment (Fer (mouse)) was 0.559. It also gave a phosphorylation enrichment (Fes) of 1.05, a phosphorylation enrichment (Fyn) of 0.519 and a phosphorylation enrichment (Hck) of 0.497. It also gave a phosphorylation enrichment (Jak2) of 0.776, a phosphorylation enrichment (MERTK) of 0.444 and a phosphorylation enrichment (c-Abl (mouse)) of 0.798. For the same sequence, the phosphorylation enrichment (c-Src) was 0.472, the SH2 binding enrichment (Grb2 SH2) was 0.814 and the SH2 binding enrichment (SHP2-C SH2) was 0.805. It also gave an SH2 binding enrichment (c-Src SH2) of 0.391.
EAAFVYAISSA [WNT4_Y113] was tested, and the phosphorylation enrichment (AncSZ) was 1.34, the phosphorylation enrichment (EPHB1) was 0.623 and the phosphorylation enrichment (EPHB2) was 0.59. For the same sequence, the phosphorylation enrichment (FGFR1) was 0.586, the phosphorylation enrichment (FGFR3) was 0.749 and the phosphorylation enrichment (Fer (mouse)) was 0.649. For the same sequence, the phosphorylation enrichment (Fes) was 1.3, the phosphorylation enrichment (Fyn) was 1.9 and the phosphorylation enrichment (Hck) was 1.38. The phosphorylation enrichment (Jak2) was 1.36, the phosphorylation enrichment (MERTK) was 0.566 and the phosphorylation enrichment (c-Abl (mouse)) was 2.7. For the same sequence, the phosphorylation enrichment (c-Src) was 2.79, the SH2 binding enrichment (Grb2 SH2) was 0.684 and the SH2 binding enrichment (SHP2-C SH2) was 0.745. It also gave an SH2 binding enrichment (c-Src SH2) of 0.568.
KFVKMYDNHQL [MYO9A_Y203_YF] showed a phosphorylation enrichment (AncSZ) of 0.586, a phosphorylation enrichment (EPHB1) of 0.442 and a phosphorylation enrichment (EPHB2) of 0.482. For the same sequence, the phosphorylation enrichment (FGFR1) was 0.418, the phosphorylation enrichment (FGFR3) was 0.512 and the phosphorylation enrichment (Fer (mouse)) was 0.458. The phosphorylation enrichment (Fes) was 0.572, the phosphorylation enrichment (Fyn) was 0.377 and the phosphorylation enrichment (Hck) was 0.424. The phosphorylation enrichment (Jak2) was 0.402, the phosphorylation enrichment (MERTK) was 0.532 and the phosphorylation enrichment (c-Abl (mouse)) was 0.438. It also gave a phosphorylation enrichment (c-Src) of 0.378, an SH2 binding enrichment (Grb2 SH2) of 0.79 and an SH2 binding enrichment (SHP2-C SH2) of 0.502. For the same sequence, the SH2 binding enrichment (c-Src SH2) was 0.891.
Work on RKLASYRSCLL [DHX37_Y1080] yielded a phosphorylation enrichment (AncSZ) of 0.75, a phosphorylation enrichment (EPHB1) of 0.321 and a phosphorylation enrichment (EPHB2) of 0.492. The phosphorylation enrichment (FGFR1) was 0.581, the phosphorylation enrichment (FGFR3) was 0.617 and the phosphorylation enrichment (Fer (mouse)) was 0.768. It also gave a phosphorylation enrichment (Fes) of 0.811, a phosphorylation enrichment (Fyn) of 0.515 and a phosphorylation enrichment (Hck) of 0.468. The phosphorylation enrichment (Jak2) was 0.633, the phosphorylation enrichment (MERTK) was 0.356 and the phosphorylation enrichment (c-Abl (mouse)) was 0.627. For the same sequence, the phosphorylation enrichment (c-Src) was 0.486, the SH2 binding enrichment (Grb2 SH2) was 1.04 and the SH2 binding enrichment (SHP2-C SH2) was 1.04. For the same sequence, the SH2 binding enrichment (c-Src SH2) was 0.861.
With TTKGSYSLYVR [HCK_Y180_S183Y] the phosphorylation enrichment (AncSZ) was 1.02, the phosphorylation enrichment (EPHB1) was 0.667 and the phosphorylation enrichment (EPHB2) was 0.581. It also gave a phosphorylation enrichment (FGFR1) of 0.464, a phosphorylation enrichment (FGFR3) of 0.671 and a phosphorylation enrichment (Fer (mouse)) of 0.474. The phosphorylation enrichment (Fes) was 1.16, the phosphorylation enrichment (Fyn) was 0.462 and the phosphorylation enrichment (Hck) was 0.458. It also gave a phosphorylation enrichment (Jak2) of 1.02, a phosphorylation enrichment (MERTK) of 0.43 and a phosphorylation enrichment (c-Abl (mouse)) of 0.666. The phosphorylation enrichment (c-Src) was 0.373, the SH2 binding enrichment (Grb2 SH2) was 0.998 and the SH2 binding enrichment (SHP2-C SH2) was 1.11. It also gave an SH2 binding enrichment (c-Src SH2) of 0.647.

— the supplement of paper PMC10065799, “High-throughput profiling of sequence recognition by tyrosine kinases and SH2 domains using bacterial peptide display” (eLife, 2023)
